These results are taken from PMC10712694 (International Journal of Molecular Medicine, 2023).

Experiment [1] concerns the target T1, LGR4 extracellular (ligand-binding) domain, L62 to V464, His-tagged (UniProt A2ARI4 62-464).
T1 sequence (looked up): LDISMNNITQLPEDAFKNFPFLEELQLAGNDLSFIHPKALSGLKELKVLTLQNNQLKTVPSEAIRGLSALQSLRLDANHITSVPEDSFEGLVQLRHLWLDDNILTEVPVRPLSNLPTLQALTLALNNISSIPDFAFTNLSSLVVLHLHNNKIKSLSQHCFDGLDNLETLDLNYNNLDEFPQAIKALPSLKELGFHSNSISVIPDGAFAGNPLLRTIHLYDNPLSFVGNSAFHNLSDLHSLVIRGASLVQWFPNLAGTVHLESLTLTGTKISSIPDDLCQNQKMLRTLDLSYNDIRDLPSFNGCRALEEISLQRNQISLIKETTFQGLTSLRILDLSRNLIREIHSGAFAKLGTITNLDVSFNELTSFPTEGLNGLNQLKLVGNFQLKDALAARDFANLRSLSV
In words: MST.

Experiment [2] concerns the target T2, RANK extracellular (ligand-binding) domain, Q30 to P213, His-tagged (UniProt O35305 30-213).
T2 sequence (looked up): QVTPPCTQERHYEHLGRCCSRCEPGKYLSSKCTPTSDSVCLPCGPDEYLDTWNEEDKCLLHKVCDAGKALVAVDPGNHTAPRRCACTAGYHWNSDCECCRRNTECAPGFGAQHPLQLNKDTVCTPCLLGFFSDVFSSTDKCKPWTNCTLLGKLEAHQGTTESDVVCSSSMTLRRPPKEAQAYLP
In words: MST.

B1: wild-type RANKL (receptor activator of nuclear factor-κB ligand) (ligand, UniProt O35235 139-316, looked up)
chain: FSGAPAMMEGSWLDVAQRGKPEAQPFAHLTINAASIPSGSHKVTLSSWYHDRGWAKISNMTLSNGKLRVNQDGFYYLYANICFRHHETSGSVPTDYLQLMVYVVKTSIKIPSSHNLMKGGSTKNWSGNSEFHFYSINVGGFFKLRAGEEISIQVSNPSLLDPDQDATYFGAFKVQDID
B1: the figures for the Kd in experiment [1] and in experiment [2] were 409 nM and 33.3 nM, respectively.
